This note sets out measurements from the supplement of paper PMC12764529.

A short description of data set [1]: folding stability dG unfold from trypsin proteolysis; higher = more stable. A digest of the protocol:
(§1)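 How resistant each design was to proteolysis was captured as K50, inferred by Bayesian fitting of sequencing counts. Unfolding free energy was then derived relative to a sequence-predicted unfolded-state K50 and a shared folded-state K50, per protease or combined. Digestion used trypsin and chymotrypsin at 11 threefold-diluted concentrations plus a no-protease condition, on mini-proteins under 80 residues without cysteine in a PA-tagged cDNA display construct. Designs were kept only when AlphaFold2 dimer inter-PAE was above 15.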

A short description of data set [2]: folding stability dG unfold from chymotrypsin proteolysis; higher = more stable. Put shortly: as §1
The nature of data set [3]: folding stability dG unfold (combined trypsin and chymotrypsin); higher = more stable. Put shortly:
as §1

± gives the half width of the 95% confidence interval.

For the sequence “SAGGSAGGKPPKFKVEVFIFPESNSVLVKIELPNSTLPFFIDKNGKIKGIKIIGDKVFNVSEGLSAGGSAGG [r6_241_TrMRF]”, the “folding stability dG unfold” value in data set [1] turned out to be 1.42 ± 0.12 kcal/mol; in data set [2], 2.17 ± 0.097 kcal/mol; in data set [3] it was 1.96 ± 0.17 kcal/mol.
With “SAGGSAGGKPPKPPKKVTITVTITFTLEDGKTVTVTAKITFLPDGTIKIEITYPDGSKLTLTFPSAGGSAGG [r6_109_TrROS_Hall]”, the “folding stability dG unfold” value in data set [1] stood at 3.75 ± 0.35 kcal/mol; in data set [2] it was 4.81 ± 0.18 kcal/mol; in data set [3], 4.59 ± 0.23 kcal/mol.
With “SAGGSAGGKTLELEVEALDPITGEPYKVKIIYDPETGTATILVTHPNGKKSLFTVPAGEALKLLSAGGSAGG [r6_219_TrMRF]”, the “folding stability dG unfold” value was 2.63 ± 0.19 kcal/mol in data set [1], 3.456 ± 0.033 kcal/mol in data set [2] and 3.28 ± 0.13 kcal/mol in data set [3].
As to “SAGGSAGGKTLTIKLKDSTVTIELPSSISSISRIEVHSDGSLTLYHSSTGSTITLPIPPKIDNPSAGGSAGG [r6_369_TrMRF]”, the results for the “folding stability dG unfold” value in data set [1], in data set [2] and in data set [3] were 1.74 ± 0.058 kcal/mol, 2.06 ± 0.035 kcal/mol and 1.96 ± 0.051 kcal/mol, respectively.
The corresponding values for “SAGGSAGGKVRINWNPNGWIRIKIETPGKKQEIPIPMDSPEDAKDFVDKLAKQFKVKIEEIEPYSAGGSAGG [r6_254_TrROS]” are -0.179 ± 0.47 kcal/mol, 0.166 ± 0.3 kcal/mol and 0.194 ± 0.26 kcal/mol.
In the case of “SAGGSAGGLEDVIRALGLELLEREKIGEKIRILARDPNADRLYEVTVTLEGPPEIEITPLPPGLSAGGSAGG [r6_195_JUSTAS]”, the “folding stability dG unfold” value in data set [1] came to 2.79 ± 0.052 kcal/mol; in data set [2], 3.225 ± 0.022 kcal/mol; in data set [3], 3.04 ± 0.037 kcal/mol.
Take “SAGGSAGGLIEEILKEIGLSPEEVVKVEVEPIEEKENSLTVRVTAEFLLPDGSKKKIEAEFEIGSAGGSAGG [r6_774_TrMRF]”: the “folding stability dG unfold” value in data set [1] is 1.1 ± 0.06 kcal/mol; in data set [2] it was 1.13 ± 0.082 kcal/mol; in data set [3], 1.21 ± 0.11 kcal/mol.
As to “SAGGSAGGLTLRLELEIRLEDGLTLRVRVEYDLETNEVKIEIELLPPAPPVEEEPEVLVVEEEESAGGSAGG [r6_926_TrROS_Hall]”, the results for the “folding stability dG unfold” value in data set [1], in data set [2] and in data set [3] were 3 ± 0.29 kcal/mol, 4.28 ± 0.29 kcal/mol and 3.78 ± 0.41 kcal/mol, respectively.
The matching figures for “SAGGSAGGLYIVRIEIYHPENGKEWTIMIPVPSEEEAKEEAEELAKTFAKKNGYKIEVEVFPLPSAGGSAGG [r6_787_TrROS]”: 1.53 ± 0.033 kcal/mol, 2.5 ± 0.067 kcal/mol and 2.11 ± 0.1 kcal/mol.
With “SAGGSAGGMAKVKILKIKPVNTGEDGSKSVEIEVEFENPNPEVAKAFVEEIAKKLGFEEVEDTTSAGGSAGG [r6_317_TrMRF]”, the figures for the “folding stability dG unfold” value in data set [1], in data set [2] and in data set [3] were 0.43 ± 0.079 kcal/mol, 0.687 ± 0.15 kcal/mol and 0.406 ± 0.28 kcal/mol, respectively.
In the case of “SAGGSAGGMDAEELAERIANHFQEHFPDMPIKVEVDPDHGWAKIEMRNPNNPGQKHEFEIPIDKSAGGSAGG [r6_478_TrROS]”, the “folding stability dG unfold” value in data set [1] worked out at 0.311 ± 0.093 kcal/mol; in data set [2], 1.29 ± 0.031 kcal/mol; in data set [3], 0.912 ± 0.1 kcal/mol.
As for “SAGGSAGGMEEVLALLKELGLEVKSVDIKSPDKVIVYIKPKDEKKLEELKKAVPKSLVDEIGLESAGGSAGG [r6_84_JUSTAS]”, the entries for the “folding stability dG unfold” value in data set [1], in data set [2] and in data set [3] were -0.0936 ± 0.083 kcal/mol, 0.455 ± 0.15 kcal/mol and 0.275 ± 0.13 kcal/mol, respectively.
For “SAGGSAGGMEIRVERDPESDLLVAELKIDGHDAIAVFDPNRPGHIEIGTTNEIPIEEIIDALLSSAGGSAGG [r6_195_TrMRF]”, the “folding stability dG unfold” value in data set [1] is 0.683 ± 0.038 kcal/mol; in data set [2] it was -0.08 ± 0.32 kcal/mol; in data set [3] it was 0.152 ± 0.37 kcal/mol.
In the case of “SAGGSAGGMEVVERVVKLPDGTELRITIERDPEKDTAKVTITDPTTSETRTLDVTSEEEALELLSAGGSAGG [r6_465_JUSTAS]”, the “folding stability dG unfold” value in data set [1] turned out to be 2.31 ± 0.068 kcal/mol; in data set [2], 1.56 ± 0.032 kcal/mol; in data set [3], 1.93 ± 0.037 kcal/mol.
For “SAGGSAGGMIEVYEEGDKLTVLNPGPDPNKKVTVTLDNGSATSSRIPEGTYVTTATVAPDATLKSAGGSAGG [r6_70_JUSTAS]”, the “folding stability dG unfold” value in data set [1] was 0.14 ± 0.028 kcal/mol; in data set [2], -1.06 ± 0.36 kcal/mol; in data set [3], -0.169 ± 0.099 kcal/mol.
Turning to “SAGGSAGGMIIQEVEEFKDKSEEEVKKKMLEELKKKYPKSYKVKITVTKNPSGKYTVTVTITPNSAGGSAGG [r6_964_JUSTAS]”, the “folding stability dG unfold” value was found to be 2.19 ± 0.047 kcal/mol in data set [1], 2.65 ± 0.059 kcal/mol in data set [2] and 2.51 ± 0.071 kcal/mol in data set [3].
Regarding “SAGGSAGGMIIRVEFKNGEVKTFVVKSPEEAKKKLAESLGLKEDEIPLDEIKSVEILNLDEALSSAGGSAGG [r6_586_TrMRF]”, the “folding stability dG unfold” value in data set [1] is 3.35 ± 0.1 kcal/mol; in data set [2], 4.1 ± 0.073 kcal/mol; in data set [3], 3.91 ± 0.073 kcal/mol.
On to “SAGGSAGGMIKIKLKNGEVLYIDPKKPVLYFNKEKKIIPVKKDKIEKALKELEKKGFKIEKIDPSAGGSAGG [r6_337_TrMRF]”, for which the “folding stability dG unfold” value in data set [1] is -0.249 ± 0.28 kcal/mol; in data set [2], -0.0347 ± 0.31 kcal/mol; in data set [3], 0.0657 ± 0.15 kcal/mol.
As to “SAGGSAGGMIPLEEIEIEEITEETLPSNEKVITVKVKFPDGTKTLTFEPNEGEEKILEKIKELTSAGGSAGG [r6_233_JUSTAS]”, the “folding stability dG unfold” value in data set [1] is 0.544 ± 0.042 kcal/mol; in data set [2] it was 0.727 ± 0.034 kcal/mol; in data set [3], 0.734 ± 0.082 kcal/mol.
Turning to “SAGGSAGGMIRFDTPEEVEAALKALRAKLPPGATLVIEIEVDGKLVRVEFKDGKITKVEVRELPSAGGSAGG [r6_288_TrROS_Hall]”, the “folding stability dG unfold” value came out at 3.02 ± 0.16 kcal/mol in data set [1], 3.67 ± 0.12 kcal/mol in data set [2] and 3.57 ± 0.2 kcal/mol in data set [3].
For “SAGGSAGGMITVNSEEEAKELEAELKEKGYKAEVTPKTGKNGPYYLITLTPIPKKKKSTKKSKLSAGGSAGG [r6_182_JUSTAS]”, the “folding stability dG unfold” value in data set [1] came to 1.16 ± 0.095 kcal/mol; in data set [2], 1.03 ± 0.11 kcal/mol; in data set [3] it was 1.13 ± 0.21 kcal/mol.
On to “SAGGSAGGMKAVITQPPDGTATVEIYDETTGKTTTKTIPADQPEEIEALIAGKVDEVTTTPAPASAGGSAGG [r6_640_JUSTAS]”, for which the “folding stability dG unfold” value in data set [1] was found to be 2.09 ± 0.12 kcal/mol; in data set [2], 1.35 ± 0.1 kcal/mol; in data set [3], 1.76 ± 0.095 kcal/mol.
“SAGGSAGGMKELAEKLGWEYEEKEEKLPSGKKILIATFTSPDGSKVIITFDPSTNKIISEEVFESAGGSAGG [r6_982_JUSTAS]”: the “folding stability dG unfold” value in data set [1] came to 4.28 ± 0.4 kcal/mol; in data set [2], 3.71 ± 0.23 kcal/mol; in data set [3] it was 4.03 ± 0.25 kcal/mol.
With “SAGGSAGGMKIEIIEEKDGYIVLRVSPEDLEALEKLGFEIVSVEEVEGELYIVIKVSPEALKALSAGGSAGG [r6_108_TrROS_Hall]”, the “folding stability dG unfold” value was found to be 3.58 ± 0.095 kcal/mol in data set [1], 3.5 ± 0.037 kcal/mol in data set [2] and 3.55 ± 0.066 kcal/mol in data set [3].
On to “SAGGSAGGMKIRIEIEMTPEEVEALREELEKAGYRVEVERREDGRVRVTIEIELPPPPPPPEEESAGGSAGG [r6_8_TrROS_Hall]”, for which the results for the “folding stability dG unfold” value in data set [1], in data set [2] and in data set [3] were 3.08 ± 0.24 kcal/mol, 3.75 ± 0.13 kcal/mol and 3.46 ± 0.2 kcal/mol, respectively.
The matching figures for “SAGGSAGGMKITTPDGKEITFPPKDETVTLTITVKLEDGTTVTIEIKFNKNGEIVEIKISIEKKSAGGSAGG [r6_530_TrROS_Hall]”: 1.52 ± 0.07 kcal/mol, 2.43 ± 0.061 kcal/mol and 1.99 ± 0.17 kcal/mol.
The matching figures for “SAGGSAGGMKITVEEVKVEKKEDGSYRVRIRLKNGEVLELEFESLEEALAAAKKLGAEITEIEPSAGGSAGG [r6_84_TrROS_Hall]”: 3.12 ± 0.058 kcal/mol, 3.54 ± 0.038 kcal/mol and 3.35 ± 0.04 kcal/mol.
Regarding “SAGGSAGGMKIVVEEVDEEKGYVRIRIEDPETKEEKEIVVKVKTPEEAEALAKKLAEAGYEVETSAGGSAGG [r6_796_TrROS_Hall]”, the “folding stability dG unfold” value in data set [1] was 1.27 ± 0.045 kcal/mol; in data set [2], 1.79 ± 0.028 kcal/mol; in data set [3], 1.61 ± 0.087 kcal/mol.
As to “SAGGSAGGMKPGEEKEITLPDGSKIKVRIKDGKLEIEFENGERKEIEIKPGEKIEIKLPKGVKPSAGGSAGG [r6_970_TrROS_Hall]”, the “folding stability dG unfold” value was determined as 1.4 ± 0.076 kcal/mol in data set [1], 2.05 ± 0.085 kcal/mol in data set [2] and 1.81 ± 0.083 kcal/mol in data set [3].
As to “SAGGSAGGMKPISRSTYTNPLNGTTITVTKYPETGEYVITLPDGTTYTVPKSVPITSVEEAIKNSAGGSAGG [r6_72_JUSTAS]”, the results for the “folding stability dG unfold” value in data set [1], in data set [2] and in data set [3] were 0.32 ± 0.066 kcal/mol, 1.32 ± 0.15 kcal/mol and 0.977 ± 0.096 kcal/mol, respectively.
The matching figures for “SAGGSAGGMKQYIVTVTLKSPDGTEHTIELETESLDEVKEKLKNLPDPNLELVELKVVPKEELASAGGSAGG [r6_297_JUSTAS]”: 2.39 ± 0.098 kcal/mol, 2.21 ± 0.035 kcal/mol and 2.25 ± 0.13 kcal/mol.
Consider “SAGGSAGGMKVKIVSFDPENQEVVIYDEKTGKEIVVKAKSVEELKAALEKLGLEVEVEVLPPEESAGGSAGG [r6_27_TrROS_Hall]”, for which the “folding stability dG unfold” value in data set [1] was 2.99 ± 0.43 kcal/mol; in data set [2], 3.19 ± 0.26 kcal/mol; in data set [3], 3.3 ± 0.39 kcal/mol.
Take “SAGGSAGGMKVTIEKENGKYRIKVEIEKNGKKIEIEIDMSVEELKKELEKKLNIKIKKVEIEPVSAGGSAGG [r6_762_TrROS_Hall]”: the “folding stability dG unfold” value in data set [1] was determined as 1.7 ± 0.2 kcal/mol; in data set [2], 1.03 ± 0.53 kcal/mol; in data set [3], 1.5 ± 0.66 kcal/mol.
The corresponding values for “SAGGSAGGMKVTISSKGLPATITYYDPRNGTSTTVPINGDPEAAVAALKEATGLDVTDVTVTVESAGGSAGG [r6_763_JUSTAS]” are 0.71 ± 0.04 kcal/mol, 0.52 ± 0.11 kcal/mol and 0.617 ± 0.12 kcal/mol.
“SAGGSAGGMKVTSRETTEITVDTSTGKVTITTTTTLSNGTVVPVGTTTVAISELPEELLSEIESSAGGSAGG [r6_469_JUSTAS]”: the “folding stability dG unfold” value in data set [1] was found to be 0.308 ± 0.026 kcal/mol; in data set [2] it was 0.886 ± 0.019 kcal/mol; in data set [3], 0.707 ± 0.042 kcal/mol.
Consider “SAGGSAGGMLEITVPSRREPDSLEVEITITDPSSNTTTTLRRRFPPGDETSPEEIAEKIAAELSSAGGSAGG [r6_234_JUSTAS]”, for which the “folding stability dG unfold” value in data set [1] came to 0.677 ± 0.13 kcal/mol; in data set [2], 0.332 ± 0.23 kcal/mol; in data set [3], 0.505 ± 0.28 kcal/mol.
